From the nanobody polyreactivity screen of Harvey et al. (2022)

assay: yeast display, Sf9 membrane polyspecificity reagent, FACS + sequencing; frameworks hold sequencing errors
Outline: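 A nanobody's polyreactivity label depends on the gate it was sorted from. Yeast display cells were stained with 10% biotinylated, detergent-solubilized Sf9 membrane reagent for 1 hour at 4 °C, enriched on streptavidin microbeads and sorted by FACS. The low and high (top ~1%) gates were set on anti-HA fluorescence for expression and streptavidin fluorescence for reagent binding.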

Sequence | polyreactivity (PSR sort gate)
QVQLVESGGGLVQAGGSLRLSCAASGSTFRYNAMGWYRQAPGKERELVASINRGGGGTYYADSVKGRFTISRDNAKKTVYLQMNSLKPEDTAVYYCAKARFTRGTWFYYWGQGTQVTVSS | high polyreactivity
QVQLVESGGGLVQAGGSLRLSCAASGSTFRYNAMGWYRQAPGKERELVASITWSGGDTYYADSVKGRFTISRDNAKNTVYLQMNSLKPEDTAVYYCAKKGYASRYFIYDYWGQGTQVTVSS | low polyreactivity
QVQLVESGGGLVQAGGSLRLSCAASGSTFRYNTMGWYRQAPGKEREFVAAISQSGGSTYYADSVKGRFTISRDNAKNTVYLQMNSLKPEDTAVYYCNARPFYATYRYRGYSWGQGTQVTVSS | high polyreactivity
QVQLVESGGGLVQAGGSLRLSCAASGSTFRYNTMGWYRQAPGKERELVAAINISSSSTYYADSVKGRFTISRDNAKNTVYLQMNSLKPEDTAVYYCANRDYVPIATDENDDYWGQGTQVTVSS | low polyreactivity
QVQLVESGGGLVQAGGSLRLSCAASGSTFRYYAKGWYRQAPGKERELVAAIAAGSNTNYADSVKGRFTISRDNAKNTVYLQMNSVKPEDTAVFYCAVASYARVQYEYWGQGTQVTVNS | low polyreactivity
QVQLVESGGGLVQAGGSLRLSCAASGSTFRYYAMAWYREAPGKERELVAAISRRGGSTYYADSVKGRFTISRDNAKNTVYLQMNSLIPEDTAVYYCNAAASTFTSWIRGPGVCYDYWGQGTQVTVSS | high polyreactivity
QVQLVESGGGLVQAGGSLRLSCAASGSTFRYYAMGWYRHAPGKDRELVAAISGSGGRTYYADSVKGRFTISRDNAKNTVYLQMNSLKPEDTAVYYCNTRGRRTDYDYWGQGTQVTVSS | high polyreactivity
QVQLVESGGGLVQAGGSLRLSCAASGSTFRYYAMGWYRQAPGKEREFVAAISWSGSSTYYADSVKGRFTISRDNAKNTVYLQMNSLKPEDTAVYYCAARYRYRSSSYDYWGQGTQVTVSS | high polyreactivity
QVQLVESGGGLVQAGGSLRLSCAASGSTFRYYAMGWYRQAPGKERELVAAINSGGSTYYADSVKGRFTISRDNAKNTVYLQMNSLKPEDTAVYYCAAYYFWYLYWGQGTQVTVSS | high polyreactivity
QVQLVESGGGLVQAGGSLRLSCAASGSTFRYYAMGWYRQAPGKERELVAAITRGDSTNYADSVKGRFTISRDNAKNTVYLQMNSLKPEDTAVYYCNAGDGPDEEYDYWGQGTQVTVSS | low polyreactivity
QVQLVESGGGLVQAGGSLRLSCAASGSTFRYYVMGWYRQAPGKERELVARITSAASTNYADSVKGRFTISRDNAKNTVYLQMNSLKPEDTAVYYCAARKYGSRYRLKYDYWGQGTQVTVSS | high polyreactivity
QVQLVESGGGLVQAGGSLRLSCAASGSTFSANAMGWYRQAPGKERELVAAITYRGGNTYYADSVKGRFTISRDNAKNTVYLQLNSLKPEDTAVYYCNRDLRVRYRRLKYGYWGQGTQVTVSS | low polyreactivity
QVQLVESGGGLVQAGGSLRLSCAASGSTFSANAMGWYRQAPGKERELVADISTGGSTKYADSVKGRFTISRDNAKNTVYLQMNSLKPEDTAVYYCAARRRWARGSAIRGYWGQGTQVTVSS | high polyreactivity
QVQLVESGGGLVQAGGSLRLSCAASGSTFSANTKGWYRQAPGTERELVAGITNTGDTYYADSVKGRFTISRDNAKNTVYLQMNSLKPEDTAVYYCAADSWRRTDGAYWSTVYYWGQGTQVTVSS | low polyreactivity
QVQLVESGGGLVQAGGSLRLSCAASGSTFSDNAMGGYRQAPGKERELVAAINETGGSTYYADSVKGRFTISRDNAKNTVYLQMNSLKPEDTAVYYCNADIDPYGATYAIEYDYWGQGTQVTVSS | low polyreactivity
QVQLVESGGGLVQAGGSLRLSCAASGSTFSDNAMGWYRQAPGKEREFVAAINETGGSTYYADSVKGRFTISRDNAKNTVYVQMNSLKPEDTAVYYCNADIDPYGATYAIEYDYWGQGTQVTVSS | low polyreactivity
QVQLVESGGGLVQAGGSLRLSCAASGSTFSDNAMGWYRQAPGKERELVAAITSGGSTYYADSVKGRFTISRDNAKNTVYLQMNSLKPEDTAVYYCAADYWGQGTQVTVSS | low polyreactivity
